In article PMC11875817 one finds Km of TrxB for its substrate TrxA; DTNB reduction assay (TNB release, A412), 50 nM ecTrxB, 0 to 6 μM ecTrxA, NADPH, no auranofin and Km of TrxB for its substrate TrxA; DTNB reduction assay (TNB release, A412), 50 nM bsTrxB, 0 to 6 μM bsTrxA, NADPH, no auranofin data, which are given here for two molecules.

Assay [1] concerns the target Escherichia coli MG1655 thioredoxin reductase TrxB (Escherichia coli MG1655) (UniProt P0A9P4).
Assay [2] concerns the target Bacillus subtilis 168 thioredoxin reductase TrxB (Bacillus subtilis 168) (UniProt P80880).
Sequence of UniProt P80880 (P80880 whole entry): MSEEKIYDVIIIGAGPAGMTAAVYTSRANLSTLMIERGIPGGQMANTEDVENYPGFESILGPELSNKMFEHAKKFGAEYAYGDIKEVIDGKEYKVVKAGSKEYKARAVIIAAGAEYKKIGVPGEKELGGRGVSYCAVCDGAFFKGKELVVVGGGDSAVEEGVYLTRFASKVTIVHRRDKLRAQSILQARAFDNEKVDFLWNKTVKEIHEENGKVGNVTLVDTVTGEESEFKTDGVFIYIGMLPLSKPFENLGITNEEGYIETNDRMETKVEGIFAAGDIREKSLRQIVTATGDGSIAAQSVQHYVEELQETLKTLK

Sequence of UniProt P0A9P4 (P0A9P4 whole entry): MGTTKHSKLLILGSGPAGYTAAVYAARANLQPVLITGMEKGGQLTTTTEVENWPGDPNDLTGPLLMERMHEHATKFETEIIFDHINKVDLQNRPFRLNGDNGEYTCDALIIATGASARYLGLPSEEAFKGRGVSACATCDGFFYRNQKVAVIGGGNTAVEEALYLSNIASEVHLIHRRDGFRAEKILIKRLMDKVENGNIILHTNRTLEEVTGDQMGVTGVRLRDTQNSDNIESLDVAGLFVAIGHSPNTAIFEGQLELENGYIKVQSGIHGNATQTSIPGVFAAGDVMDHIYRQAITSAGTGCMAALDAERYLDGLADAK

Turning to “Escherichia coli K-12 MG1655 thioredoxin TrxA (from UniProt P0AA25 1-109) (natural protein)”, in assay [1], the Km of TrxB for its substrate TrxA; DTNB reduction assay (TNB release, A412), 50 nM ecTrxB, 0 to 6 μM ecTrxA, NADPH, no auranofin was 1.35 µM.

B1: Bacillus subtilis 168 thioredoxin TrxA (natural protein)
chain: MAIVKATDQSFSAETSEGVVLADFWAPWCGPCKMIAPVLEELDQEMGDKLKIVKIDVDENQETAGKYGVMSIPTLLVLKDGEVVETSVGFKPKEALQELVNKHL
For B1, in assay [2], the Km of TrxB for its substrate TrxA; DTNB reduction assay (TNB release, A412), 50 nM bsTrxB, 0 to 6 μM bsTrxA, NADPH, no auranofin came to 1.72 µM.
